This passage reports cfu recovered results from patent publication US20090269346A1.

The target of assay [1] is LRP2 CR89 (human) (UniProt P98164). Nature of the assay: phage binding: equal amounts of phage incubated in wells coated with LRP2 CR89, bound phage eluted and titered; no EDTA.
The target is the same in assay [2]. Nature of the assay: phage binding: equal amounts of phage incubated in wells coated with LRP2 CR89, bound phage eluted and titered; in the presence of 50 mM EDTA.

Chain of LRP2 CR89 (human) (P98164 1025-1102): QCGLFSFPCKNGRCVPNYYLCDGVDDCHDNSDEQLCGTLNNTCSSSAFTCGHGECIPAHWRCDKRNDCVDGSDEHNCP

B1: RAP phage (protein, not shown: large carriers)
chain: YSREKNQPKPSPKRESGEEFRMEKLNQLWEKAQRLHLPPVRLAELHADLKIQERDELAWKKLKLDGLDEDGEKEARLIRNLNVILAKYGLDGKKDARQVTSNSLSGTQEDGLDDPRLEKLWHKAKTSGKFSGEELDKLWREFLHHKEKVHEYNVLLETLSRTEEIHENVISPSDLSDIKGSVLHSRHTELKEKLRSINQGLDRLRRVSHQGYSTEAEFEEPRVIDLWDLAQSANLTDKELEAFREELKHFEAKIEKHNHYQKQLEIAHEKLRHAESVGDGERVSRSREKHALLEGRTKELGYTVKKHLQDLSGRISRARAEAETG
modifications: Displayed on M13 phage as an N-terminal fusion to pIII; pIII letters not given.
On to B1, for which the cfu recovered amounted to 520 cfu with LRP2 CR89 (human) [1] and 146 cfu with LRP2 CR89 (human) [2].
